Data on 1 molecule can be found in paper PMC3026963 (The Biochemical journal, 2010).

The experiment deals with protein kinase CK2 catalytic subunit α (human, UniProt P68400 1-391). Briefly: SEC.
Sequence of protein kinase CK2 catalytic subunit α (P68400 whole entry): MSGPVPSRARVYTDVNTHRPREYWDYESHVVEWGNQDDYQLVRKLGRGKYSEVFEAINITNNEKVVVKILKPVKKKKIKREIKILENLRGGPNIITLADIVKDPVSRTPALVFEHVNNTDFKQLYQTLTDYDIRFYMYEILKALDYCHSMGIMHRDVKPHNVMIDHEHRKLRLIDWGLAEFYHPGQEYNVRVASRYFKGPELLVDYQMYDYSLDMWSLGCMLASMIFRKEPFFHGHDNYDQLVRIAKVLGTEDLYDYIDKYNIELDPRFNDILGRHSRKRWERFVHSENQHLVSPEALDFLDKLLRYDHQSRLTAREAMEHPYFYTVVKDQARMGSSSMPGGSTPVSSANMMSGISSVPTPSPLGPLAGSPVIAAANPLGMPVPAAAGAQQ

B1: protein kinase CK2 non-catalytic subunit β (natural protein)
chain: not shown
With B1, the binding result is “binds”.
